Measurements as given in patent publication US20040048314A1, “Novel physiologically active peptide and use thereof” (priority 2001, published 2004).

What was measured:
[1] = target: human type I5E receptor protein (human) (UniProt Q8NFJ6); experiment: cell-based or functional assay; settings: scale: times lower level than human type Bv8 peptide
ZAQ receptor = target: T1, ZAQ receptor (Homo sapiens, UniProt Q8TCW9); experiment: Assay for the ZAQ receptor activating activity (intracellular Ca ion level increasing activity using FLIPR); assay type: cell-based
T1 construct: expressed in transfected cells; host or cells: CHO/dhfr- cells, clone ZAQC-B1 (plasmid pAK-ZAQC)
T1 sequence (Q8TCW9 whole entry): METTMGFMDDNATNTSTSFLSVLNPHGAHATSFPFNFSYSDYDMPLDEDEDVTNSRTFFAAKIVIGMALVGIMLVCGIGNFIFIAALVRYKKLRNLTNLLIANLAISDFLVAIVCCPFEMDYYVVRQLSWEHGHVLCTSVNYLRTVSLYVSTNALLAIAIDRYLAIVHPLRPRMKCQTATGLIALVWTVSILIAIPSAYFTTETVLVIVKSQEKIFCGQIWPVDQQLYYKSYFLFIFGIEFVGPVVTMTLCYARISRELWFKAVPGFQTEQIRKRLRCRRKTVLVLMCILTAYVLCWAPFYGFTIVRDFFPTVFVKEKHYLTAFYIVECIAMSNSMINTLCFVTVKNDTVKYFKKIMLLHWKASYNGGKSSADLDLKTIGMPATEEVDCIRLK
Protocol: The ZAQC-B1 obtained in (2-1) above and the 15E-4 cells obtained in (2-2) above were suspended in a medium (10% d FBS-DMEM), respectively, in 15×10^4 cells/ml and an aliquot of 200 μl was inoculated on a 96-well plate for FLIPR (Black plate clear bottom, Coster, Inc.) using a dispenser (3.0×10^4 cells/200 μl/well). After culturing overnight in a 5% CO2 incubator at 37° C., it was provided for use (hereinafter which was made a cell plate). Twenty milliliters of H/HBSS (9.8 g of Nissui Hanks 2 (Nissui Seiyaku Co., Ltd.), 0.35 g of sodium hydrogencarbonate and 4.77 g of HEPES; the pH was adjusted to 7.4 with 6 M sodium hydroxide solution followed by filter sterilization), 200 μl of 250 mM Probenecid and 200 μl of fetal bovine serum (FBS) were mixed. Also, 2 vials (50 μg) of Fluo 3-AM (Dojin Kagaku Kenkyusho) were dissolved in 40 μl of dimethylsulfoxide and 40 μl of 20% Pluronic acid (Molecular Probes Co., Ltd.). The solution was added to H/HBSS-Probenecid-FBS described above. After thoroughly mixing them, an aliquot of 100 μl was added to the medium-removed cell plate using an 8-channel pipette, followed by incubation in a 5% CO2 incubator at 37° C. for an hour (dye loading). […] By assaying a change in fluorescence intensity with passage of time, the intracellular Ca ion level increasing activity was measured. […]

guinea pig ileum = experiment: Experiment on contraction using specimen removed from guinea pig ileum; settings: for EC50: guinea pig ileum specimen, contraction induced by 1 μM acetylcholine taken as 100%, accumulative administration, read-out: EC50 of contraction response calculated from the dose-response curve
Protocol: Guinea pigs (std: Hartley, 7-8 weeks old, male, weighing about 450 g) weres bled to death by cutting the carotid artery and laparotomized to remove the ileum. The ileum was placed on a glass Petri dish charged with Tyrode solution (composition: 138 mM NaCl, 2.7 mM KCl, 1.8 mM CaCl2, 0.5 mM MgCl2, 1.1 mM NaH2PO4, 11.9 mM NaHCO3 and 5.6 mM glucose), which was bubbled with 95% O2-5% CO2 gas. After connective tissues or fat pieces adhered to the ileum were removed with scissors for surgery and tweezers, the ileum was cut into a size of about 1.5 cm long, which was used as specimen. The specimen was suspended in an organ bath (20 ml) filled with the Tyrode solution maintained at 37° C. and a load of 0.5 g was applied over 30 minutes or longer to stabilize the specimen. Contraction response of the ileum specimen was measured using AMPLIFIER CASE 7747 of NEC Sanei. After determination of the maximum contraction by administration of 1 μM acetylcholine, purified human type Bv8 peptide obtained by the method of REFERENCE EXAMPLE 1 with a modification or snake venom MIT1 was accumulatively administered to assay the contraction response. For dilution of human type Bv8 and MIT1, physiological saline containing 0.05% bovine serum albumin was employed.
The contraction response induced by human type Bv8 and MIT1 was shown by percentage, taking the contraction induced by 1 μM acetylcholine as 100%.

MAP kinase = settings: cited from earlier work
PI-3 kinase = settings: cited from earlier work
I5E receptor = target: T2, I5E receptor (Homo sapiens, UniProt Q8NFJ6); experiment: Assay for the I5E receptor activating activity (intracellular Ca ion level increasing activity using FLIPR); assay type: cell-based; settings: I5E receptor expression CHO cells
T2 construct: expressed in transfected cells; host or cells: CHO/dhfr- cells, clone No. 4 (I5E-4 cells), vector pAKKO1.11
T2 sequence (Q8NFJ6 whole entry): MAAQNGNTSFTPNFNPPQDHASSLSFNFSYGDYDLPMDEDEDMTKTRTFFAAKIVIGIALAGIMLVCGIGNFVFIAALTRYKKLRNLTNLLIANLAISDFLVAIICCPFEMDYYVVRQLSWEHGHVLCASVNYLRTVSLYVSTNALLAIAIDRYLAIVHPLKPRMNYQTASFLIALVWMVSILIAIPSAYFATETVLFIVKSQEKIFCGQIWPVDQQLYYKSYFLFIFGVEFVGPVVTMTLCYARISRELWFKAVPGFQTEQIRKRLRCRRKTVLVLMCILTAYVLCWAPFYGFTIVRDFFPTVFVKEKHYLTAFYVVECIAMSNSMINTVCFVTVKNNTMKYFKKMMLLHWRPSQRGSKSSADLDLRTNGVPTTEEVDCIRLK
Source text: Human I5E receptor cDNA (SEQ ID NO: 6) was cloned by PCR publicly known and incorporated into pAKKO1.11 expression vector. The expression vector was transfected to CHO/dhfr^− cells (American Type Culture Collection) by the method described in (2-1). About 20 colonies of the transfected CHO cells, which grew in 8 to 10 days after the initiation of culture, were selected. The selected cells were inoculated on a 96-well plate in 3×10^4 cells/well, and the reactivity on snake venom MIT1 (SEQ ID NO: 21) was examined by the test method described in (2-3) described hereinafter. No. 4 clone of the 15E-expressing CHO cells showing a good reactivity was selected (hereinafter abbreviated as 15E-4 cells).
The ZAQC-B1 obtained in (2-1) above and the 15E-4 cells obtained in (2-2) above were suspended in a medium (10% d FBS-DMEM), respectively, in 15×10^4 cells/ml and an aliquot of 200 μl was inoculated on a 96-well plate for FLIPR (Black plate clear bottom, Coster, Inc.) using a dispenser (3.0×10^4 cells/200 μl/well). After culturing overnight in a 5% CO2 incubator at 37° C., it was provided for use (hereinafter which was made a cell plate). […] By assaying a change in fluorescence intensity with passage of time, the intracellular Ca ion level increasing activity was measured. […]

[2] = tested on: ileum, distal colon, proximal colon; settings: cited from earlier work

Sequence of human type I5E receptor protein (human) (Q8NFJ6 whole entry): as above

“snake venom Mamba Intestinal Toxin 1 (from UniProt P25687 1-80) (ligand)” gave an I5E receptor activating activity (intracellular calcium level, FLIPR) [1] of 10.

B1: human type Bv8: Human type Bv8 mature peptide (81 amino acid residues, SEQ ID NO: 19) produced in Escherichia coli, … EXAMPLE 1 (protein)
chain: AVITGACDKDSQCGGGMCCAVSIWVKSIRICTPMGKLGDSCHPLTRKVPFFGRRMHHTCPCLPGLACLRTSFNRFICLAQ
In the case of B1, the “intracellular Ca ion level increasing activity using FLIPR, compared with CHO cell-derived recombinant preparation” value (ZAQ receptor; method of EXAMPLE 2 (2-3), receptor cell line not specified) is reported as “equivalent to that of the CHO cell-derived recombinant preparation”, the “intestinal tract contractile activity” value (guinea pig ileum; as described in EXAMPLES) is reported as “has an intestinal tract contractile activity” and the EC50 (guinea pig ileum) is reported as 0.57 nM. The MAP kinase activation (MAP kinase) was “activates” and the PI-3 kinase activation (PI-3 kinase) was “activates”.

B2: human type Bv8 peptide: Human type Bv8 purified from CHO cell culture supernatant (EXAMPLE 3); C-terminal Lys-deficient mature peptide, SEQ ID NO: 22 (protein)
chain: AVITGACDKDSQCGGGMCCAVSIWVKSIRICTPMGKLGDSCHPLTRKVPFFGRRMHHTCPCLPGLACLRTSFNRFICLAQ
modifications: Human
With B2 the “ZAQ receptor activating activity (intracellular calcium level)” value (ZAQ receptor; ZAQ receptor expression CHO cells, FLIPR, FIG. 9) was “induced the intracellular calcium level concentration-dependently” and the “I5E receptor activating activity (intracellular calcium level)” value (I5E receptor; FLIPR, FIG. 10) was “induced the intracellular calcium level concentration-dependently”.

B3: MIT1 (protein)
chain: AVITGACERDLQCGKGTCCAVSLWIKSVRVCTPVGTSGEDCHPASHKIPFSGQRMHHTCPCAPNLACVQTSPKKFKCLSK
In the case of B3, the “level from which I5E receptor activating activity is exhibited, lower than that of human type Bv8 peptide” value (I5E receptor; relative to human type Bv8 peptide) is given as “about 10 times”, the EC50 (guinea pig ileum) is given as 0.4 nM and the degree of contraction/relaxation ([2]; compared with potassium chloride) is given as “as potent as comparable to 40 mM potassium chloride”. The “contraction or relaxation of intestinal tract” value ([2]; ileum, distal colon, proximal colon) was “induced contraction in the ileum or distal colon, or relaxation in the proximal colon”.
